The record followed here is the RNAGym collection of RNA variant scans (doi:10.1073/pnas.2313332121).

Variants at the floor of the assay were thinned out.

Sequences and labels used below:
B1: TPR 5TU (parent)
chain: GGAUCUUCUCGAUCUAACAAAAAAGACAAAUCUGCCACAAAGCUUGAGAGCAUCUUCGGAUGCAGAGGCGGCAGCCUUCGGUGGCGCGAUAGCGCCAACGUUCUCAACUAUGACACGCAAAACGCGUGCUCCGUUGAAUGGAGUUUAUCAUG

This data set covers variants of B1. The experiment in a line: polymerase ribozyme fitness, log enrichment relative to wild type (log ratio); higher = more active; in vitro selection for triplet polymerase activity. In outline: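 The heterodimeric triplet polymerase ribozyme's subunits were each mutagenized into PCR-built libraries and transcribed. Every library was selected once, in triplicate, by annealing with a biotinylated primer, the partner subunit and triplets, incubating frozen at −7 °C, gel-excising extended constructs, capturing on streptavidin beads and running RT-PCR. Input and output libraries were Illumina-sequenced, with genotypes kept only at ≥10 input reads and ≥1 read per output. Fitness, from inverse-variance-weighted replicate averages, is the base-2 logarithm of genotype enrichment over wild-type enrichment.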
As to GGAUAUUCUCGAUCUAACAAAAAAGACAAAUCUGCCACAAAGCUUGAGAGCAUCUUCGGAUGCAGAGGCGGCAGCCUUCGGUGGCGCGAUAGCGCCAACGUUCUCAACUAUGACACGCAAAACGCGUGCUCCGUUGAAUGGAGUUUAUCAUG [C5A], the “polymerase ribozyme fitness (log ratio)” value is 0.273.

As for GGAUAUUCUCGAUCUAACUAAAAAGACAAAUCUGCCACAAAGCUUGAGAGCAUCUUCGGAUGCAGAGGCGGCAGCCUUCGGUGGCCCGAUAGCGCCAACGUUCUCAACUAUGACACGCAAAACGCGUGCUCCGUUGAAUGGAGUUUCUCAUG [C5A A19U G86C A147C], the “polymerase ribozyme fitness (log ratio)” value is -3.38. In the case of GGAUAUUCUCGGUCUAACAAAACAGACAAAUCUGCCACAAAGCUUGAGAGCAUCUUCGGAUGCAGAGGCGGCAGCCUUCGGUGACGCGAUAGCGCCAACGUUCUCAACUAUGACACGCAAAACGCGUGCUCCGUUGAAUGGAGUUUAUCAUG [C5A A12G A23C G84A], the “polymerase ribozyme fitness (log ratio)” value was -4.02. Turning to GGAUAUUCUCGCUCUAACAAAAAAGACAAAUCUGCCACAAAACUUGAGAGCAUCUUCGGAUGCAGAGCCGGCAGCCUUAGGUAGCGCGAUAGCGCCAACGUUCUCAAGUAUGACACGCAAAACGCGUGCUCCGUUGAAUGGAGUUUAUCAUG [C5A A12C G42A G68C C79A G83A C108G], the “polymerase ribozyme fitness (log ratio)” value was at most -4.2. For GGAUAUUCUCGAUCUACCAAAAAAGACAAAUCUGCCACAAAGCUUGAGAGCAUCUUCGGAUGCAGAGGCGGCAGCCUUCGGUGGCGCAAUAGCGCCAACGUUCUCAACUAUGACACUCAAAACGCGUGCUCCGUUGAAUGGAGUUUAUCAUG [C5A A17C G88A G117U], the “polymerase ribozyme fitness (log ratio)” value is -3.46. GGAGCUUCUCGAUCUAACAAAAAAGACAAAUCGGCCACAAAGCUUGAGAGCAUCUUCGGAUGCAGAGGCGGCAGACUUCGGUGGCGGGAUAGCGCCAACGUUCUCAACAAUGUCACUCAAAACGCGUGCUCCGUUGAAUGGAGUUUAUCAUG [U4G U33G C75A C87G U109A A113U G117U]: the “polymerase ribozyme fitness (log ratio)” value was at most -4.2. Consider GGAUAUUCUCGAUCUAACAAAAAAGACAAGUCUGCUACAAAGCUUGAGAGCAUCUUCGGAUGCAGAGUCGGCAGCCUUCGGUGGCGCGAUAGCGCCAACAUUCUCAACUAUGACACGCAAAACGCGUGCUCCGUUGAAUGGAGUUUAUCAUG [C5A A30G C36U G68U G100A], for which the “polymerase ribozyme fitness (log ratio)” value was at most -4.2. Next, GGAUAUUCUCGUUCUAACAAAAAAGACAAAUCUGCCACAAAGCUUGAGAGCAUCUUCGGAUGCAGAGGCGGCAGCCUUCGGUGGCGCGAUAGCGCCAACGUUCUCAACUAUGACACGCAAAACGCGUGCUCCGUUGAAUGGAGUUUAUCAUG [C5A A12U]: 0.264; GGAUAUUCUCGAUCUAACAAAAAAGACUAAUCUGCCACAAAGCUUGAGAGCAUCAUGGGAUGCAGAGGCGGCAGCCUUCGGUGGCGCGAUAGCGCUAACGUUCUCAACUAUGACACGCAAAACGCGUGCUCCGUUGAAUGUAGUUUAUCAUG [C5A A28U U55A C57G C96U G141U]: at most -4.2. Take GGAUAUUCUCGAUCUAUCAAAAAAGACAAAUCUGCCACAAAGCUUGAGAGCAUCUUCGGAUGCAGAGGCGGCAGCCUUCGGUUGCGGGAUAGCGCCAACGUUCUCAACUAUGACACGCAAAACGCGUGCUCCGUUGAAUGGAGUUUAUCAUG [C5A A17U G83U C87G]: the “polymerase ribozyme fitness (log ratio)” value was at most -4.2. With GGAUAUUCUCGAUCUUACAAAAAAGACAAAUCUGCCACAAAGCUUGAGAGCAACUUGGGAUGCAGAGGCGGCAGCCUUCGGUGGCGCGAGAGCGACAACGUUCUCAACUAUGACACGCAAAACGCGUGCUCCGUUGAAUGGAGUUUAUCAUG [C5A A16U U53A C57G U90G C95A], the “polymerase ribozyme fitness (log ratio)” value is at most -4.2. As for GGAUAUUCUCGAUCUAUCAAAAAAGACAAAUCUGCCACAAAGCUAGAGAGCAUCUUCGGAUGCAGAGGCGCCAGCCUUCGGUGACGCGUUAGCGCCAACGUUCGCAACUAUGACACGCAAAACGCGUGCUCCGUUGAAUGGAGUGUAUCAUG [C5A A17U U45A G71C G84A A89U U104G U145G], the “polymerase ribozyme fitness (log ratio)” value was at most -4.2. With GGAUAUUCUCGAUCUAACAAAAAAGGCAAAUCUGCCACAAAGCUUGAGAGCAUCUUCGGAUGCAGAGGCGGCAGCCUUCGGUGGCGCGAUAGCGCCAACGUUCUCAACUAUGACGCGCAAAACGCGUGCUCCGUUGAAUGGAGUUUAUCAUG [C5A A26G A115G], the “polymerase ribozyme fitness (log ratio)” value is at most -4.2. GGAGCUUCUCGAUCUAACAAAAAAGACAAAUCUGCCACAAAGCUUGAGAGCAACUUCGGAUGCAGAGGCGGCAGCCUUCGGUGGUGCGAUAGCGCCAACGUUCUCAACUAUGACACGCAAAACGCGUGCUCCCUUGAAUGGAGUUUAUCAUG [U4G U53A C85U G133C]: the “polymerase ribozyme fitness (log ratio)” value was -2.45. Next, GGAUAUUCUCGAUCUAACACAAAAGACAAAUCUGCCACAAAGCUUGAGAGCAUCUUCGGAUGCAGAGGCGGCAGCCUUCGGUGGCGCGAUAGCGCCAACGUUCUCAACUAUGACACGCAAAACGCGUGCUCCGUUGAAUGGAGUUUAUCAUG [C5A A20C]: 0.413; GGAUAUUCUCGAUCUAACAAAAAAGACAAAUCUGCCACACAGCUUGAGAUCAUCUUUGGAUGCAGAGGCGGCAGCCUUCGCUGGCGCGAUAGCGACAACGUUCGCAACUAUGACAGGCAAAACGCGUGCUCCAUUGAAUGGAGUUUAUCAUG [C5A A40C G50U C57U G81C C95A U104G C116G G133A]: at most -4.2. GGAUAUUCUCGAUCUAACAAAAAAGACAAAUCUGCCUCAAAGCUUGAGAGCAUCUUCGGAUGCAGAGGCGGCAGCCUUCGGUGGCGCGAUAGCGCCAACGUUCUCAACUAUGACACGCAAAACGCGUGCUCCGUUGAAUGGAGUUUAUCAUG [C5A A37U]: the “polymerase ribozyme fitness (log ratio)” value is -0.964.

On to GGAUAUUCUCGAUCUAACAAUAAAGACAAAUCUGCCACAAAGCUUGAGAACAUCUUCGGAUGCAGAGGCGGCAGCCUUCGGUGGAGCGAUAGCGCAAACGUUCUCAACUAUGACACGGAAAACGCGUGCUCCCUUGAAUGGAGUUUAUUAUG [C5A A21U G50A C85A C96A C118G G133C C149U], for which the “polymerase ribozyme fitness (log ratio)” value was at most -4.2. For GGAUAUUCUCGAUCUAACAGAAAAGACAAAUCUGCCACAAAGCUUGAGAGCAUCUUCGGAUGCAGAGGCGGCAGCCUUCGGUGGUGCGAUAGUGCCUACGUUCUCAACUAUGACACGCAAAACGCGUGCUCCGUUGAAUGGAGUUUAUCAUG [C5A A20G C85U C93U A97U], the “polymerase ribozyme fitness (log ratio)” value was -3.46.
